Among the data in patent US20110044985A1 are A450 ELISA values, retold here.

For the experiment, the target named is Aβ1-40. The experiment in a line: ELISA, nonbiotinylated peptide on plate. (In general: An ELISA detects its analyte on a solid surface through an enzyme-linked reagent.)

Substitutions are numbered along the chain they refer to. Names and notes keep the numbering of the source.

Sequence of Aβ1-40 (peptide, as listed by the source): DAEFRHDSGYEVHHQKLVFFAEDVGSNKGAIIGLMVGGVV

B1: 6G heavy chain mutant variant 7D (N101C) (antibody, V domains shown)
VH: QVQLVQSGAEVKKPGASVKVSCKASGYTFTTYAIHWVRQAPGQGLEWMGFTSPYSGVSNYNQKFKGRVTMTRDTSTSTVYMELSSLRSEDTAVYYCARFDCYDRGYVRDYWGQGTLVTVS
VL: DIVMTQSPDSLAVSLGERATINCRASESVDNDRISFLNWYQQKPGQPPKLLIYAATKQGTGVPDRFSGSGSGTDFTLTISSLQAEDVAVYYCQQSKEFPWSFGGGTKVEIKR
B1: the A450 ELISA came out at 0.23 A450.

B2: 6G heavy chain mutant variant 9E (N101R) (antibody, V domains shown)
VH: B1 VH with C101R
VL: B1 VL
On to B2, for which the A450 ELISA was determined as 0.22 A450.
